Measured values taken from US5196309A, “Characterization of platelet aggregation disorders” (The Scripps Research Institute, priority 1990, dated 1993).
Where no end group is shown, it is not given here.

Key:
[1] = system: platelets; details: cited from earlier work
[2] = system: GPIIb-IIIa; details: cited from earlier work
[3] = system: GPIIb-IIIa on MPD platelets; assay: Flow cytometry of platelet surface GPIIb-IIIa, myelofibrosis (MPD) patient platelets; type: binding, human
Experimental: The disclosing antibody is indicated in the left hand column. In each column, the legend indicates the added agonist or peptide. Agonist and peptide concentrations were identical to those in FIGS. 2A-2H. Phorbol myristate acetate (PMA) was present in a final concentration of 50 nmol/L. Anti-TSP refers to the binding of a MoAb against thrombospondin.
(§1) Samples were incubated without stirring in a total volume of 50 μL for 15 minutes at room temperature with agonists and peptides as indicated. Samples were then diluted to 0.5 mL with Tyrode's buffer and analyzed on a FACStar flow cytometer (Bectin-Dickinson Immunocytometry Systems, Mountain View, Calif.). Light scatter and fluorescence signals were acquired at logarithmic gain, and 10,000 platelets in each sample were analyzed. Results are expressed as mean platelet fluorescence intensity in arbitrary fluorescence units or as histograms of log platelet fluorescence intensity in arbitrary units on the abscissa and platelet number on the ordinate.

[4] = target: T1, GPIIb-IIIa on Cam platelets (Homo sapiens, UniProt P05106+P08514, D145Y); assay: Flow cytometry of platelet surface GPIIb-IIIa, Cam variant thrombasthenia platelets; type: binding
T1 construct: from tissue; host or cells: platelets in platelet-rich plasma from venous blood of two Cam variant siblings
From the text: FIGS. 2A through 2H show a flow cytometric analysis of the deficit in Cam variant of thrombasthenia. Shown are histograms with the log of fluorescence intensity on the abscissa and cell number on the ordinate. The reporting antibody is indicated in the left hand column. Cam platelets are shown in FIGS. 2A, 2C, 2E and 2G and the normal control in FIGS. 2B, 2D, 2F and 2H. Each column of figures contains a legend indicating the added agonist, peptide, or antibody. […] Similar data were obtained with other antibodies to GPIIb-IIIa (7E3, 10E5, 4F10) and an antibody to GPIIb (Tab). The Cam variant data shown are representative of determinations on two affected male siblings with identical results.
Based on the model depicted in FIG. 1, abnormal platelet aggregation can arise from a defect in the activation of platelet fibrinogen receptors, a defect in fibrinogen binding per se, or a defect in the postoccupancy events required for optimal aggregation. The potential usefulness of this model was tested by studying two patients with persistent and severe defects in platelet aggregation. To quantitate fibrinogen receptor activation and ligand binding, a fluorescein-labeled MoAb (PAC1) which specifically recognizes the activated form of GPIIb-IIIa, was employed (Shattil et al., J. Biol. Chem., 260:11107 (1985)). Antibody binding was measured in small (5 μL) samples of platelet rich plasma by flow cytometry.
Platelet rich plasma was obtained by taking venous blood from patients and controls who had not ingested medications for at least 10 days, anticoagulating with 1/10 volume of 3.8% sodium citrate, and sedimentating red and white blood cells at 180 g for 20 minutes at room temperature. Immediately thereafter, 5-μL aliquots of platelet-rich plasma were added to polypropylene tubes containing a fluorescein isothiocyanate-conjugated monoclonal antibody (10^-9 to 10^-6 mol/L) in Tyrode's buffer (1% bovine serum albumin, 2 mmol/L MgCl2, 137.5 mmol/L NaCl, 12 mmol/L NaHCO3, 2.6 mmol/L KCl, pH 7.4). Samples were incubated without stirring in a total volume of 50 μL for 15 minutes at room temperature with agonists and peptides as indicated. Samples were then diluted to 0.5 mL with Tyrode's buffer and analyzed on a FACStar flow cytometer (Bectin-Dickinson Immunocytometry Systems, Mountain View, Calif.). Light scatter and fluorescence signals were acquired at logarithmic gain, and 10,000 platelets in each sample were analyzed. Results are expressed as mean platelet fluorescence intensity in arbitrary fluorescence units or as histograms of log platelet fluorescence intensity in arbitrary units on the abscissa and platelet number on the ordinate.

[5] = target: T2, GPIIb-IIIa on normal platelets (Homo sapiens, UniProt P05106+P08514); assay: Flow cytometry of platelet surface GPIIb-IIIa, normal (control) platelets; type: binding
T2 construct: Analysis of Platelet Surface GPIIb-IIIa by Flow Cytometry; from tissue; host or cells: platelets in platelet-rich plasma from venous blood of controls
Experimental: as §1

[6] = system: platelets; assay: 125I-fibrinogen binding to platelets; details: 10 uM ADP; 37 degrees, 30 minutes
Experimental: Fibrinogen was isolated and labelled with ^125 I by standard methods as described by Marguerie et al., J. Biol. Chem., 255:154-161 (1980) to form ^125 I-Fg. Thereafter, the binding of ^125 I-Fg to platelets was assayed as described previously. Marguerie et al., J. Biol. Chem., 255:154-161 (1980). Binding was initiated by the admixture of a million resting platelets in the presence or absence of 10 micromolar adenosine diphosphate (ADP) to radiolabelled fibrinogen at varying concentrations from 0.01 to 1 nanomolar (nM) and incubation at 37 degrees for 30 minutes. Bound fibrinogen was separated from free fibrinogen by centrifugation of the platelet-fibrinogen admixture through 0.3 ml of 20% sucrose and the amount of radiolabelled fibrinogen associated with the cell pellet determined by gamma detection.

[7] = system: Cam GPIIb-IIIa; assay: KYGRGDS affinity chromatography of surface-labeled platelet lysate, Cam platelets; type: binding, human; details: Cam extract, 240 μg GPIIb-IIIa in starting extract; eluted with GRGDSP
Experimental: (§2) To directly examine the ligand binding function of Cam GPIIb-IIIa, extracts of ^125 I surface-labeledplatelets were subjected to affinity chromatography using an immobilized RGD peptide.
(§3) Platelets were isolated from acid-citrate dextrose anticoagulated human blood by differential centrifugation followed by gel filtration on Sepharose 2B (Ginsberg et al., Blood, 69:58 (1987)). Lysates of surface-labeled platelets were analyzed by KYGRGDS affinity chromatography as described by Lam et al., J. Biol. Chem., 262:947 (1987). Briefly, intact platelets were radioiodinated by the lactoperoxidase-H2 O2 method then resuspended to 2×10^8 platelets/mL and solubilized in lysis buffer containing 10 mmol/L N-2-hydroxyethylpiperazine-N'-2-ethanesulfonic acid (HEPES), pH 7.5, 0.15 mol/L NaCl, 1 mmol/L CaCl2, 1 mmol/L MgCl2, 0.1 mmol/L leupeptin, 1 mmol/L phenylmethanesulfonylfluoride (PMSF), 10 mmol/L N-ethylmaleimide, and 50 mmol/L octylglucoside. […] Under these conditions approximately 10% of normal GPIIb-IIIa is bound and eluted.
(§4) The GPIIb-IIIa content in the starting material and in the column fractions was quantitated by use of a polyclonal anti-GPIIb-IIIa antibody in an ELISA assay. The control extract contained 332 μg; the Cam individual contained 240 μg in the starting extract. The eluted fractions from the control extract contained 20 μg GPIIb-IIIa. […]

[8] = system: normal GPIIb-IIIa; assay: KYGRGDS affinity chromatography of surface-labeled platelet lysate, normal platelets; type: binding, human
Experimental: as §2, §3, §4

PAC 1
Fibrinogen Binding (effect of antibody on fibrinogen binding to platelets) [1]: Decrease | Effect of Peptides (RGD or fibrinogen gamma chain C-terminal peptides) on antibody binding [2]: Decrease | Expression of PAC1 binding sites on stimulated MPD platelets ([3]; 50 μmol/L epinephrine (not shown)): did not express PAC1 binding sites | Expression of PAC1 binding sites on stimulated MPD platelets ([3]; 10 μm ADP): did not express PAC1 binding sites | PAC1 binding to MPD platelets in response to PMA ([3]; PMA 50 nmol/L): bound | PAC1 fluorescence of PMA-activated Cam platelets ([4]; 50 nmol/L phorbol myristate acetate (PMA)): no increase | PAC1 binding to ADP-activated Cam platelets ([4]; ADP 100 μmol/L): complete lack of binding

LGGAKQAGDV [gamma(402-411)]
anti-LIBS1 binding, fluorescence ([5]; control platelets with gamma(402-411) 400 μmol/L): 201 fluorescence U | anti-LIBS1 binding, fluorescence ([4]; Cam platelets with gamma(402-411) 400 μmol/L): 31 U | Change in anti-LIBS1 binding caused by gamma(402-411) ([4]; Cam platelets, gamma(402-411) 400 μmol/L): failed to increase

Gly-Arg-Gly-Asp-Ser-Pro [GRGDSP]
Fluorescence Increase (LIBS-1 expression, anti-LIBS 1 binding), Normal ([5]; [GRGDSP] 2 μM, normal platelets): 20 | Fluorescence Increase (LIBS-1 expression, anti-LIBS 1 binding), Normal ([5]; [GRGDSP] 4 μM, normal platelets): 31 | Fluorescence Increase (LIBS-1 expression, anti-LIBS 1 binding), Normal ([5]; [GRGDSP] 10 μM, normal platelets): 48 | Fluorescence Increase (LIBS-1 expression, anti-LIBS 1 binding), Normal ([5]; [GRGDSP] 40 μM, normal platelets): 70 | Fluorescence Increase (LIBS-1 expression, anti-LIBS 1 binding), Normal ([5]; [GRGDSP] 200 μM, normal platelets): 106 | PMI-1 binding, mean fluorescence intensity ([5]; normal platelets treated with 200 μmol/L GRGDSP): 151 fluorescence units | anti-LIBS1 binding, mean fluorescence ([5]; normal platelets with GRGDSP 200 μmol/L): 205 U | Increase in PMI-1 binding ([5]; normal platelets, 200 μmol/L GRGDSP): 2.5 fold | Increase in anti-LIBS1 binding caused by peptide ([5]; normal platelets, GRGDSP 200 μmol/L): fourfold increase | PMI-1 binding, mean fluorescence intensity ([4]; Cam platelets treated with 200 μmol/L GRGDSP): 107 fluorescence units | anti-LIBS1 binding, mean fluorescence ([4]; Cam platelets with GRGDSP 200 μmol/L): 25 U | Change in PMI-1 binding in response to GRGDSP ([4]; Cam platelets, 200 μmol/L GRGDSP): no increase | Change in anti-LIBS1 binding caused by GRGDSP ([4]; Cam platelets, GRGDSP 200 μmol/L): no increase | Fluorescence Increase (LIBS-1 expression, anti-LIBS 1 binding), Cam ([4]; [GRGDSP] 2 μM, Cam platelets): 3 | Fluorescence Increase (LIBS-1 expression, anti-LIBS 1 binding), Cam ([4]; [GRGDSP] 4 μM, Cam platelets): 3 | Fluorescence Increase (LIBS-1 expression, anti-LIBS 1 binding), Cam ([4]; [GRGDSP] 10 μM, Cam platelets): 3 | Fluorescence Increase (LIBS-1 expression, anti-LIBS 1 binding), Cam ([4]; [GRGDSP] 40 μM, Cam platelets): 3 | Fluorescence Increase (LIBS-1 expression, anti-LIBS 1 binding), Cam ([4]; [GRGDSP] 200 μM, Cam platelets): 6

Nc1ncnc2c1ncn2[C@@H]1O[C@H](COP(=O)(O)OP(=O)(O)O)[C@@H](O)[C@H]1O [ADP, adenosine diphosphate]
Increase in number of 125I-Fg molecules bound to platelets [6]: at least a three fold increase

KYGRGDS [Lys-Tyr-Gly-Arg-Gly-Asp-Ser]
GPIIb-IIIa in eluted fractions (ELISA) [7]: 2.6 µg | GPIIb-IIIa in eluted fractions (ELISA) ([8]; control extract, 332 μg GPIIb-IIIa in starting extract, eluted with GRGDSP): 20 µg | Share of normal GPIIb-IIIa bound to KYGRGDS-Sepharose and eluted ([8]; lysate 12 hours at 4° C., eluted with 1 mmol/L GRGDSP): approximately 10%
